Each block holds one molecule with its values, some of them ahead of it.
Tests used:
human α9 integrin [1] = biological target: T1, human α9 integrin (human, UniProt Q13797 30-1035); assay: cell-based or functional assay
T1 sequence: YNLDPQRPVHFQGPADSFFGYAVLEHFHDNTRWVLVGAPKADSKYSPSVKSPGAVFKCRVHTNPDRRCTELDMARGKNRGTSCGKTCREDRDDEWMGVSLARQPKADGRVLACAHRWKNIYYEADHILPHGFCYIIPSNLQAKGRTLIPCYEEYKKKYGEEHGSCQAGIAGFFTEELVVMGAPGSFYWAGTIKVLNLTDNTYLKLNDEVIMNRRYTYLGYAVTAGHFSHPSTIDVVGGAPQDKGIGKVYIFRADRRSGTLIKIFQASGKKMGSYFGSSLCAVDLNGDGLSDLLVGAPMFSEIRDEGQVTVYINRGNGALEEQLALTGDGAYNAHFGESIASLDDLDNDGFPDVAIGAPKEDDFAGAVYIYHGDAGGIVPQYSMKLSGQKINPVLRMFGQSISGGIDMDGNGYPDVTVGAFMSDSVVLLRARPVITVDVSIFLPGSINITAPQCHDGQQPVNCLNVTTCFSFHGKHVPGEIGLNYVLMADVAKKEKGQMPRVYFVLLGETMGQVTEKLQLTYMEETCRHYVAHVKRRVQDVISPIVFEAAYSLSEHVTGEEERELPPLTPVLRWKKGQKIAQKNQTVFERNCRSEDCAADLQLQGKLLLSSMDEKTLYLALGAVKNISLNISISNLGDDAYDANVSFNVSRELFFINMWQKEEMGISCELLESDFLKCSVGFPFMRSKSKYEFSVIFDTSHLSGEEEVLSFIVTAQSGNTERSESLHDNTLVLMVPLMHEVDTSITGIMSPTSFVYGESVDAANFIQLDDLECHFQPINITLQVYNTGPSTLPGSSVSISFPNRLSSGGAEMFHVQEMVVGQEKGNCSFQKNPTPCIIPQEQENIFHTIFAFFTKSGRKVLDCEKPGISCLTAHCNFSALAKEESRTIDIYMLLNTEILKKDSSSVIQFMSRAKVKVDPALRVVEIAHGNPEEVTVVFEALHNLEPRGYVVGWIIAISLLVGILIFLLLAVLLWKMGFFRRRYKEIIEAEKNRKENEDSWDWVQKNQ

human α9 integrin [2] = biological target: T1, human α9 integrin; assay: FACS binding assay on CHO/huα9 cells
Experimental: (§1) Mouse K33N antibody was tested at various concentrations, starting at 1.67 μg/ml and serial 3-fold dilutions, for binding to CHO/huα9 cells. Geometric mean channel fluorescence values (MCF; Y-axis) are plotted at each antibody concentration tested (X-axis) in the figure. EC₅₀ values were calculated using GraphPad Prism (GraphPad Software, San Diego, Calif.).
as §1, with “Each” for “Mouse K33N”, “5” for “1.67”
Binding of mouse, chimeric and humanized K33N antibodies to human α9 integrin was examined in a FACS binding assay with CHO/huα9 cells. Approximately 5×10⁵ CHO/huα9 cells/test were washed with FACS Binding Buffer (PBS containing 0.5% BSA and 0.05% NaN₃) and suspended in 200 μl of FACS Binding Buffer containing various amounts of test antibody. After 30 min on ice, the cells were washed with FACS Binding Buffer. The cells stained with mouse K33N were then suspended in 100 μl of 1/200-diluted FITC-labeled goat anti-mouse IgG polyclonal antibody (SouthernBiotech) in FACS Binding Buffer. The cells stained with chimeric or humanized K33N were suspended in 100 μl of 1/200-diluted FITC-labeled goat anti-human IgG polyclonal antibody (SouthernBiotech) in FACS Binding Buffer. After 30 min on ice, the cells were washed with FACS Binding Buffer, suspended in 200 μl of FACS Binding Buffer, and analyzed using a FACScan flow cytometer (BD Biosciences, Franklin Lakes, N.J.). […] Between ChK33N and HuK33N antibodies, the binding pattern was very similar to each other (FIG. 22).

human α4 integrin = biological target: T2, human α4 integrin (human, UniProt P13612 34-1032); assay: hybridoma screening on transfected cells
T2 construct: whole, on cells; Expressed on CHO K1 cells and used as the negative screen for hybridomas; also called CHO K1 cells expressing human α4 integrin
T2 sequence (looked up): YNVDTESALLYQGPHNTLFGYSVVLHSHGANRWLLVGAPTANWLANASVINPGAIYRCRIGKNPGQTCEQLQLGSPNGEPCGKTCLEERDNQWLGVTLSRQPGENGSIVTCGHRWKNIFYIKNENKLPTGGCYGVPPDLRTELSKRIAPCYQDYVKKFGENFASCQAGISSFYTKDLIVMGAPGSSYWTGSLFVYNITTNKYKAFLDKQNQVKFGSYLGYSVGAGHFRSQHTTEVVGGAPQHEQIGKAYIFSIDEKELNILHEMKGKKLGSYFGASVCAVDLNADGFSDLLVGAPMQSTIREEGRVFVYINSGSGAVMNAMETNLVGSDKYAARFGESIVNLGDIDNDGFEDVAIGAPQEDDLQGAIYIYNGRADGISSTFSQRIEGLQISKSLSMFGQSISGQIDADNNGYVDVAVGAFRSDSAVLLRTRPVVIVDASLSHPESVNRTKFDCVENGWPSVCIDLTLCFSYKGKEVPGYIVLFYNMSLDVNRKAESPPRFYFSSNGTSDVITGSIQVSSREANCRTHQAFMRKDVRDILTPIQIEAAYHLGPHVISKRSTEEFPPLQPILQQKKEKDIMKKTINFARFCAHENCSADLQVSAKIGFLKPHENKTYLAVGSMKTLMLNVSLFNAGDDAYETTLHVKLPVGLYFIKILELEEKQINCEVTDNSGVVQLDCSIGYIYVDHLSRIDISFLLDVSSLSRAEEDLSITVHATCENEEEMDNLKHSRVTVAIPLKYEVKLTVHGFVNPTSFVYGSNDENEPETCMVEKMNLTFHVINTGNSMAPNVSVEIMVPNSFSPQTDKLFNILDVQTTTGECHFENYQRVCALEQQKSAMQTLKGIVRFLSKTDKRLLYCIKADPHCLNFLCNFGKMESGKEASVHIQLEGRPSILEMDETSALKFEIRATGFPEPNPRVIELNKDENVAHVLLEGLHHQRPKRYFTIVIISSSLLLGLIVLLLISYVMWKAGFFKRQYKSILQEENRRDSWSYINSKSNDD
Experimental: Mouse monoclonal antibodies against human α9 integrin were prepared according to the subtractive immunization method (by Williams C. V., et al., 1992, Biotechniques 12:842-847). Briefly, three Balb/c mice were injected intraperitoneally with NIH-3T3 cells expressing human α9 integrin (Human α9/NIH-3T3 cells) at 3×10⁶ per mouse. At one and two weeks after the injection, the mice were injected intraperitoneally with 3×10⁶ cells/mouse of Human α9/NIH-3T3 cells, followed by another intravenous injection of the same cells at 2×10⁶ cell/mouse one week later. Hybridomas were prepared by the methods well known in the art (see, for example, Harlow et al., Antibodies: A Laboratory Manual, (Cold Spring Harbor Laboratory Press, 2nd ed. 1988); Hammerling, et al., in: Monoclonal Antibodies and T-Cell Hybridomas, pp. 563-681 (Elsevier, N.Y., 1981). Hybridoma clones producing monoclonal antibodies that were immunospecifically reactive with Human α9/CHO-K1 cells expressing human α9 integrin and with human melanoma cells endogenously expressing human α9 integrin but not with CHO K1 cells expressing human α4 integrin were established and a hybridoma clone (i.e., K33N) producing monoclonal antibody immunospecifically recognizing human α9 integrin were isolated.

IC50 of cell adhesion inhibition (G-361 cells to hTNC (AEIDGIEL)-BSA) (human α9 integrin [1]): 0.053 µg/mL
Molecule: mouse anti human α9 integrin antibody Y9A2

IC50 of cell adhesion inhibition (G-361 cells to hTNC (AEIDGIEL)-BSA) (human α9 integrin [1]): 0.084 µg/mL | EC50 (human α9 integrin [2]): 0.151 µg/mL
B1: humanized K33N IgG1/κ antibody (antibody, V domains shown)
VH: QVQLVQSGAEVKKPGASVKVSCKASGYSFTSYYMNWVRQAPGQRLEWIGWIFPGSGNTKYNEKFKGKATLTADTSASTAYMELSSLRSEDTAVYYCARSWVSYERGYYFDYWGQGTLVTVSS
VL: DIQMTQSPSSLSASVGDRVTITCRASENIYYSLAWYQQKPGKAPKLLIYNANSLEDGVPSRFSGSGSGTQYTLTISSLQPEDFATYYCKQAYDVPYTFGQGTKVEIKR
notes: also called HuK33N

binding result (human α4 integrin): no binding | IC50 of cell adhesion inhibition (G-361 cells to hTNC (AEIDGIEL)-BSA) (human α9 integrin [1]): 0.075 µg/mL | EC50 (human α9 integrin [2]): 0.104 µg/mL
B2: mouse K33N monoclonal antibody (hybridoma FERM BP-10830) (antibody, mouse IgG1, V domains shown)
VH: QVQLQQSGPELVKPGASVKISCKASGYSFTSYYMNWVKKRPGQGLEWIGWIFPGSGNTKYNEKFKGKATLTADTSSSTAYMQVSSLTSEDSAVYFCARSWVSYERGYYFDYWGQGTSLTVSS
VL: DIQMTQSPASLAASVGETVTLTCRASENIYYSLAWYQQKQGKSPQLLIYNANSLEDGVPSRFSGSGSGTQYSMKINSMQPEDTATYFCKQAYDVPYTFGGGTKLEIK
notes: also called mouse K33N antibody

IC50 of cell adhesion inhibition (G-361 cells to hTNC (AEIDGIEL)-BSA) (human α9 integrin [1]): 0.09 µg/mL | EC50 (human α9 integrin [2]): 0.143 µg/mL
B3: chimeric K33N IgG1/κ antibody (antibody, V domains shown)
VH: B2 VH
VL: B2 VL
notes: Mouse K33N variable regions on human gamma-1 and kappa constant regions (vector pChK33N); also called ChK33N

— US20110300139A1 (GENE TECHNO SCIENCE, published 2011)
